Columns and labels:
[1] = target: Nipah virus (Malaysia strain) W protein, N-terminally hexahistidine tagged (from pDEST17OI/NiVW) (Nipah virus (Malaysia strain)) (UniProt P0C1C7); test: SEC
[2] = target: Nipah virus (Malaysia strain) W protein, N-terminally hexahistidine tagged (from pDEST17OI/NiVW) (Nipah virus (Malaysia strain)) (UniProt P0C1C7); test: MALDI-TOF MS of the intact protein
[3] = target: the molecule itself; test: MALDI-TOF MS of the intact protein

Molecule | stoichiometry N [1] | stoichiometry N [2] | stoichiometry N [3]
Nipah virus (Malaysia strain) W protein, N-terminally hexahistidine tagged (from pDEST17OI/NiVW) (from UniProt P0C1C7 1-450) (natural protein) | 2 | 2 | 
Hendra virus W protein, N-terminally hexahistidine tagged (from pDEST17OI/HeVW) (natural protein, not shown: His6, N-terminal, kept) MDKLDLVNDGLDIIDFIQKNQKEIQKTYGRSSIQQPSTKDRTRAWEDFLQSTSGEHEQAEGGMPKNDGGTEGRNVEDLSSVTSSDGTIGQRVSNTRAWAEDPDDIQLDPMVTDVVYHDHGGECTGHGPSSSPERGWSYHMSGTHDGNVRAVPDTKVLPNAPKTTVPEEVREIDLIGLEDKFASAGLNPAAVPFVPKNQSTPTEEPPVIPEYYYGSGRRGDLSKSPPRGNVNLDSIKIYTSDDEDENQLEYEDEFAKSSSEVVIDTTPEDNDSINQEEVVGDPSDQGLEHPFPLGKFPEKEETPDVRRKDSLMQDSCKRGGVPKRLPMLSEEFECSGSDDPIIQELEREGSHPGGSLRLREPPQSSGNSRNQPDRQLKTGDAASPGGVQRPGTPMPKSRIMPIKKGAQTRSLNMLGRKTCLGRRVVQPGMFADYPPTKKARVLLRRMSN |  |  | 2
